The results in this text go back to publication PMC9482650, “Quantitative fragmentomics allow affinity mapping of interactomes” (Nature Communications, 2022).

Holding throughout (assay): holdup assay
Holding throughout (design): key: below the threshold = too weak to quantify, mostly under pKd 3.1 to 4
What all share (details): plain residues with an end cap or a label only (N-terminal biotin on a linker: ado-ado)

The target in assay [1] is DLG4_2, P78352.
The target of assay [2] is Inadl_5, Q8NI35.
Inadl_5, Q8NI35, sequence (Q8NI35 673-780): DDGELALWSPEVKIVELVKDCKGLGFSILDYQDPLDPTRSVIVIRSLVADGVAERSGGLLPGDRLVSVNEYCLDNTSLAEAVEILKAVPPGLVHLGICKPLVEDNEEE
In assay [3] the target is FRMPD2_3, Q68DX3.
FRMPD2_3, Q68DX3, sequence (Q68DX3 1073-1166): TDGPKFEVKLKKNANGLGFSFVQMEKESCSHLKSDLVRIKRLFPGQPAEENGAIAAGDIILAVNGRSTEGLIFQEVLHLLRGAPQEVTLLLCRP
Assay [4] addresses LIMK2, P53671.
For assay [5], the target named is DLG1_2, Q12959.
DLG1_2, Q12959, sequence (Q12959 314-412): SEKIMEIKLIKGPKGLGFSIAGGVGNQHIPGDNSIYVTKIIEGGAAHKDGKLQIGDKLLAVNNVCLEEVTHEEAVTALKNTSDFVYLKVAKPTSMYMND
Assay [6] concerns the target T1, APBA2_2, Q99767.
T1 sequence (Q99767 654-744, limits assumed, looked up): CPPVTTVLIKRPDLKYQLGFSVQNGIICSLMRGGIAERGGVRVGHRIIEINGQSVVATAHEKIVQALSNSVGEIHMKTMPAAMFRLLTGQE

Assay [7] has as its target T2, RAPGEF6, Q8TEU7.
T2 sequence (Q8TEU7 525-625, limits assumed, looked up): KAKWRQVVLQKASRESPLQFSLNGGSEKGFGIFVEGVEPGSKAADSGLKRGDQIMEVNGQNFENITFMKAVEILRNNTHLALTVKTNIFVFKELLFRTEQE

The target in assay [8] is T3, ARHGAP21, Q5T5U3.
T3 sequence (Q5T5U3 45-169, limits assumed, looked up): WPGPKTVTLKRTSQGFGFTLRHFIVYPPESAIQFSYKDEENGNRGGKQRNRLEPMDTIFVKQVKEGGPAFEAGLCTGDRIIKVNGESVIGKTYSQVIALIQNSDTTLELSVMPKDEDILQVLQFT

The target of assay [9] is T4, SNTG1, Q9NSN8.
T4 sequence (Q9NSN8 52-150, limits assumed, looked up): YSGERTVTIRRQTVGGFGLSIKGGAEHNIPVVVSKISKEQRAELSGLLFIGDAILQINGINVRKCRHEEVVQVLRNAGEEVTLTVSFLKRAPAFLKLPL

In assay [10] the target is T5, MPP6, Q9NZW5.
T5 sequence (Q9NZW5 125-219, limits assumed, looked up): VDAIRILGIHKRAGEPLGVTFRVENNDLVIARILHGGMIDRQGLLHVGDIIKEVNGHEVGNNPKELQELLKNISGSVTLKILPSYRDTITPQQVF

Assay [11] deals with T6, TIAM2, Q8IVF5.
T6 sequence (Q8IVF5 885-986, limits assumed, looked up): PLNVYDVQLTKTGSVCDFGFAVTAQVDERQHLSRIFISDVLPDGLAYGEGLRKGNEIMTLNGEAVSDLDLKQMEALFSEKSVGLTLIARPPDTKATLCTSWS

Assay [12] addresses PDLIM1, O00151.
The target of assay [13] is TJP1_3, Q07157.
TJP1_3, Q07157, sequence (Q07157 416-512): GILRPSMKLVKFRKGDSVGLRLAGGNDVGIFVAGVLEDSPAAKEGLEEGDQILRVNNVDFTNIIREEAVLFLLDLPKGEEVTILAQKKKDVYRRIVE
In assay [14] the target is Inadl_3, Q8NI35.
Inadl_3, Q8NI35, sequence (Q8NI35 359-469): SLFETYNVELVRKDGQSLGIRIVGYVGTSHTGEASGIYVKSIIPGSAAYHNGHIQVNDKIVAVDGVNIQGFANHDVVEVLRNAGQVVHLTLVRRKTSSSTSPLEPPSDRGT
The target in assay [15] is T7, RADIL, Q96JH8.
T7 sequence (Q96JH8 971-1071, limits assumed, looked up): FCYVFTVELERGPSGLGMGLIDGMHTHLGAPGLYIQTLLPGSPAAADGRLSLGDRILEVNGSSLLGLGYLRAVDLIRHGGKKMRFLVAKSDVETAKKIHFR

In assay [16] the target is T8, SNTB1, Q13884.
T8 sequence (Q13884 107-205, limits assumed, looked up): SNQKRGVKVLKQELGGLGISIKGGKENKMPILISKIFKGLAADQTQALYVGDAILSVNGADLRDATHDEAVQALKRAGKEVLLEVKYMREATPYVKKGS

Assay [17] concerns the target T9, HTRA4, P83105.
T9 sequence (P83105 378-476, limits assumed, looked up): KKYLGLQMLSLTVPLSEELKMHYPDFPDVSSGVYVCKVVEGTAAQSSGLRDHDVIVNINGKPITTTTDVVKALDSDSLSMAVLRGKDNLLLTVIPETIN

Assay [18] has as its target T10, LNX2_3, Q8N448.
T10 sequence (Q8N448 463-564, limits assumed, looked up): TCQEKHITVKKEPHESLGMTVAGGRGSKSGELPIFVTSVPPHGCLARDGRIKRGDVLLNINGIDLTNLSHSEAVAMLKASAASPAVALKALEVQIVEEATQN

The target of assay [19] is T11, DVL3, Q92997.
T11 sequence (Q92997 244-331, limits assumed, looked up): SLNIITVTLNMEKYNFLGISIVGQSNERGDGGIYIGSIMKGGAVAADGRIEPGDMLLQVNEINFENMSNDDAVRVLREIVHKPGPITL

Assay [20] has as its target T12, PDZD2_2, O15018.
T12 sequence (O15018 329-429, limits assumed, looked up): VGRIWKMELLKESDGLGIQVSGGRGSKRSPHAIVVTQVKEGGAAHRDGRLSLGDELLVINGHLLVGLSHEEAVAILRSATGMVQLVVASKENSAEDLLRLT

Assay [21] deals with T13, DLG3_2, Q92796.
T13 sequence (Q92796 221-321, limits assumed, looked up): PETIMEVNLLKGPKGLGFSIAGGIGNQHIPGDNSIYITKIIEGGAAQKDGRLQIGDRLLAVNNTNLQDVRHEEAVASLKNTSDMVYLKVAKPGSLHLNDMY

For assay [22], the target named is T14, NHERF3_1, Q5T2W1.
T14 sequence (Q5T2W1 4-100, limits assumed, looked up): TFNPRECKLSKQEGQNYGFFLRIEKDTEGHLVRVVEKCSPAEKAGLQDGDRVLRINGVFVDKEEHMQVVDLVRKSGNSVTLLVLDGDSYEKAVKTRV

LIMK2, P53671, sequence (P53671 143-248): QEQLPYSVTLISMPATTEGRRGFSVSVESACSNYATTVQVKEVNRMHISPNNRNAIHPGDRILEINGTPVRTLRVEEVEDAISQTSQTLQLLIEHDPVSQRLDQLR
PDLIM1, O00151, sequence (O00151 1-87): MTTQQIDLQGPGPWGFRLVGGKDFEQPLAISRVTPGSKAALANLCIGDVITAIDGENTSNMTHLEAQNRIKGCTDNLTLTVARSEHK
DLG4_2, P78352, sequence (P78352 155-259): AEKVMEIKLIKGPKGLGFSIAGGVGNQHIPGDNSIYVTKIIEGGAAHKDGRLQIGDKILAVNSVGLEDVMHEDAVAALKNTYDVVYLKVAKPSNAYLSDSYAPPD

B1: CLDN20, P56880 (peptide)
chain: NSTHNLKDYV
On to B1, for which the pKd (in general, the Kd on a negative log10 scale, so that one unit is a factor of ten) is “below the threshold” in assay [1]; “below the threshold” in [2]; “below the threshold” in assay [3]; “below the threshold” in [4]; 3.5 in [5]; “below the threshold” in assay [6]. Moreover, the pKd entry in [7] was “below the threshold”; in assay [8], 3.89; in [9], “below the threshold”; in [10], “below the threshold”; in [11] it was “below the threshold”; in assay [12], “below the threshold”. The pKd entry was “below the threshold” in assay [13]; “below the threshold” in assay [14]; 3.85 in assay [15]; “below the threshold” in assay [16]; “below the threshold” in assay [17]; “below the threshold” in [18]. Moreover, the pKd entry in assay [19] is “below the threshold”; in assay [20], 4.56; in assay [21], “below the threshold”; in assay [22], 4.19.

B2: GUCY1A2, P33402 (peptide)
chain: GTMFLRETSL
For the molecule B2, the pKd in [1] is 4.5; in assay [2], “below the threshold”; in assay [3] it was “below the threshold”; in [4], “below the threshold”; in assay [5], 4.81; in assay [6], “below the threshold”. For the same molecule, the pKd entry in [7] was “below the threshold”; in [8], 4.7; in assay [9], 5.09; in [10], “below the threshold”; in assay [11], 3.66; in assay [12] it was 3.78. The pKd entry in [13] is “below the threshold”; in [14], “below the threshold”; in [15] it was “below the threshold”; in assay [16], 5.39; in assay [17], 3.85; in [18] it was “below the threshold”. For the same molecule, the pKd entry was “below the threshold” in [19], “below the threshold” in assay [20], 4.51 in assay [21] and 5.64 in assay [22].

B3: TNRC6B, Q9UPQ9 (peptide)
chain: DLLGGGSDSI
B3: the pKd was 3.5 in assay [1]; “below the threshold” in assay [2]; 3.51 in [3]; “below the threshold” in assay [4]; “below the threshold” in assay [5]; “below the threshold” in [6]. Also, the pKd result is “below the threshold” in assay [7]; “below the threshold” in assay [8]; “below the threshold” in assay [9]; “below the threshold” in assay [10]; 3.97 in assay [11]; “below the threshold” in [12]. For the same molecule, the pKd result in [13], in assay [14], in assay [15], in assay [16], in [17] and in assay [18] was “below the threshold” in each case. Also, the pKd entry was “below the threshold” in [19], 3.68 in assay [20], 3.99 in assay [21] and “below the threshold” in assay [22].

B4: SLC15A2, Q16348 (peptide)
chain: IKLETKKTKL
As to B4, the pKd was 3.87 in assay [1]; 3.48 in assay [2]; “below the threshold” in assay [3]; “below the threshold” in assay [4]; “below the threshold” in [5]; 3.52 in assay [6]. In addition, the pKd is 3.48 in [7]; 3.98 in [8]; 3.64 in assay [9]; “below the threshold” in [10]; “below the threshold” in assay [11]; “below the threshold” in assay [12]. Besides, the pKd is 3.54 in assay [13]; “below the threshold” in [14]; “below the threshold” in assay [15]; 3.71 in assay [16]; 3.99 in assay [17]; “below the threshold” in [18]. In addition, the pKd result in [19] is “below the threshold”; in assay [20], “below the threshold”; in assay [21] it was “below the threshold”; in assay [22] it was 4.7.

B5: PRLHR, P49683 (peptide)
chain: GQNMTVSVVI
As to B5, the negative-log Kd (pKd) result in [1], in [2], in [3], in assay [4], in assay [5] and in [6] was “below the threshold” throughout. In addition, the pKd result was “below the threshold” in assay [7]; “below the threshold” in assay [8]; “below the threshold” in assay [9]; 3.71 in assay [10]; 4.2 in [11]; “below the threshold” in assay [12]. The pKd entry in assay [13] is “below the threshold”; in [14], 4.52; in [15] it was 4.26; in assay [16] it was 4.15; in assay [17], 4.15; in [18], 3.61. For the same molecule, the pKd entry in [19] is “below the threshold”; in [20] it was “below the threshold”; in assay [21] it was 4.31; in assay [22], “below the threshold”.
